Target: T1, VEGF (biotinylated target on streptavidin BLI probe) (UniProt P15692-4 27-191, limits assumed, biotin (site not stated))
T1 construct: also called vascular endothelial growth factor
Assay: binding kinetics, Kd (nM); Example 6 describes BLI on biotinylated target

T1 sequence (P15692 other isoform, or with tags, fused parts or gaps limits assumed): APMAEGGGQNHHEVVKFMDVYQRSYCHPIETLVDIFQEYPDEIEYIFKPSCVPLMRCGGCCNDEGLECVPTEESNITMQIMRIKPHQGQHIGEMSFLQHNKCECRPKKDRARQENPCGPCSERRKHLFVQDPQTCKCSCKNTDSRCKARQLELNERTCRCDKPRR

Kd: 29.3 nM
B1: G5-1 (VHH)
VHH: EVQLQASGGGFVQPGGSLRLSCAASGSTYANYVMGWFRQAPGKEREFVSAISAFNDEVLYYADSVKGRFTISRDNSKNTVYLQMNSLRAEDTATYYCARAGQEEASKNAPGQEPVRYWGQGTQVTVSS
notes: unconjugated comparator of conjugates 24 and 25; also called G5-1 aVEGF VHH, unconjugated; G5-1 alone
